Test results: patent US20030143225A1 (Genentech, published 2003)

Tests used:
[1] = molecular target: truncated transmembrane tissue factor comprising residues 1-243, relipidated (human) (UniProt P13726); test: cell-based or functional assay
[2] = molecular target: relipidated human tissue factor (Innovin) (human, UniProt P13726 33-295); test: cell-based or functional assay
[3] = molecular target: tissue factor on human J82 cells (human, UniProt P13726 33-295); test: cell-based or functional assay
[4] = molecular target: T1, soluble tissue factor composed of the extracellular domain residues 1-219 of hTF (human, UniProt P13726 33-251); test: SPR (BIAcore 2000), antibody immobilized, sTF in solution, 1:1 model
T1 construct: Expressed in E. coli; also called sTF
Description: The binding affinity of sTF for immobilized antibody was determined by surface plasmon resonance (SPR) measurements on a Pharmacia BIAcore 2000 instrument (Pharmacia Biosensor). Each antibody was coupled to the sensor chip surface at a level of 2000-3000 resonance units using amine coupling chemistry (Pharmacia Biosensor). In a typical experiment, 4 different antibodies were immobilized on each of the 4 flow cells of the sensor chip so that sensorgrams could be recorded simultaneously for all 4 antibodies. […] The kinetic constants were determined by non-linear regression analysis according to a 1:1 binding model using software supplied by the manufacturer. Dissociation constants were calculated from the kinetic constants. […] These solutions were incubated at ambient temperature for 30 minutes prior to injection onto the sensor chip. […] Affinities were determined by SPR measurements as described above for the wild-type protein.

Chain of truncated transmembrane tissue factor comprising residues 1-243, relipidated (human) (P13726 33-275): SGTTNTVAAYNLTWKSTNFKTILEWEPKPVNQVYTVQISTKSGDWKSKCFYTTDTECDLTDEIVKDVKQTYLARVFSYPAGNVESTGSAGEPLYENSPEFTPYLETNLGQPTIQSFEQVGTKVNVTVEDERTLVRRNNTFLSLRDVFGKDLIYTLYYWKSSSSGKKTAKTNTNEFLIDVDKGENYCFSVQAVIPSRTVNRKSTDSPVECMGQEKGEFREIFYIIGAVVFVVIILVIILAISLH

concentration that inhibited the initial rate of FX activation in human plasma by 50% [1] [µg/mL] | antibody concentration that prolonged the clotting time by 1.5-fold (PT assay) [2] [µg/mL] | IC50 of FPA generation, human ex-vivo blood flow system [3] [µg/mL] | Kd [4] [nM] | koff [4] [s⁻¹] | kon [4] [M⁻¹ s⁻¹] | Molecule
150 | – | – | – | – | – | HTF1 antibody
– | 27 | 50 | 1.7 | 0.0005 | 300000 | murine anti-TF antibody 5G6 (antibody, V domains shown, Murine monoclonal antibody purified from ascites) VH: EVLLQQSGPELVKPGASVKIPCKASGYTFTEYNMDWVKQSHGKSLEWIGDINPNNGNTIYNQKFKGKATLTVDKSSTTAYLELRSLTSEDTAVYFCARDHDYYFDFWGQGTTLTVSS VL: DIQMTQTPASQSASLGESVTITCLASQTIDTWLAWYQQKPGKSPQLLIYAATSLADGVPSRFSGSGSGTKFSFKISSLQAEDFVSYYCQQPYSSPYTFGGGTKLELKR
